Test results from US20150344570A1 (published 2015).

Target: T1, FcγRIa (human, UniProt P12314 16-292)
T1 construct: extracellular domain; soluble His-tagged extracellular domain expressed in FreeStyle293 cells, used as analyte in Biacore; also called FcgRI; CD64
Test: SPR (Biacore), captured antibody, FcγRIa analyte; relative to GpH7-A5/GpH7-B3/GpL16-k0

T1 sequence (P12314 16-292): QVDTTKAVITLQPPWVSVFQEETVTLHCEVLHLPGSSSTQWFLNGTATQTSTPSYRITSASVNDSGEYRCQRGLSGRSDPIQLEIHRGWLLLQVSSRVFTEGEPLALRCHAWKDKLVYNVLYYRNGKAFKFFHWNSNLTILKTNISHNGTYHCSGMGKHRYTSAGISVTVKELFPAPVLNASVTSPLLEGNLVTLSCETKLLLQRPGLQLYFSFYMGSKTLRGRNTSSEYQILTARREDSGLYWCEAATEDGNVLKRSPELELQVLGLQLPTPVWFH

B1: GpH7-A5/GpH7-B3 variant T335_20W/GpL16-k0 (antibody, human IgG1, kappa)
heavy 1: not shown
heavy 2: not shown
light: DIVMTQSPLSLPVTPGEPASISCQASESLVHSNRNTYLHWYLQKPGQSPQLLIYKVSNRFSGVPDRFSGSGSGTDFTLKISRVEAEDVGVYYCSQNTHVPPTFGQGTKVEIERTVAAPSVFIFPPSDEQLKSGTASVVCLLNNFYPREAKVQWKVDNALQSGNSQESVTEQDSKDSTYSLSSTLTLSKADYEKHKVYACEVTHQGLSSPVTKSFNRGEC
notes: heterodimerized IgG1, mutation in one H chain only; also called He Ab
He/Con_1a: 106 relative, control = 100

B2: GpH7-A5/GpH7-B3 variant S337_15Y/GpL16-k0 (antibody, human IgG1, kappa)
heavy 1: not shown
heavy 2: not shown
light: DIVMTQSPLSLPVTPGEPASISCQASESLVHSNRNTYLHWYLQKPGQSPQLLIYKVSNRFSGVPDRFSGSGSGTDFTLKISRVEAEDVGVYYCSQNTHVPPTFGQGTKVEIERTVAAPSVFIFPPSDEQLKSGTASVVCLLNNFYPREAKVQWKVDNALQSGNSQESVTEQDSKDSTYSLSSTLTLSKADYEKHKVYACEVTHQGLSSPVTKSFNRGEC
notes: as for B1
He/Con_1a: 104 relative, control = 100

B3: GpH7-A5/GpH7-B3 variant T335_15Y/GpL16-k0 (antibody, human IgG1, kappa)
heavy 1: not shown
heavy 2: not shown
light: DIVMTQSPLSLPVTPGEPASISCQASESLVHSNRNTYLHWYLQKPGQSPQLLIYKVSNRFSGVPDRFSGSGSGTDFTLKISRVEAEDVGVYYCSQNTHVPPTFGQGTKVEIERTVAAPSVFIFPPSDEQLKSGTASVVCLLNNFYPREAKVQWKVDNALQSGNSQESVTEQDSKDSTYSLSSTLTLSKADYEKHKVYACEVTHQGLSSPVTKSFNRGEC
notes: as for B1
He/Con_1a: 107 relative, control = 100

B4: GpH7-A5/GpH7-B3 variant S337_19Q/GpL16-k0 (antibody, human IgG1, kappa)
heavy 1: not shown
heavy 2: not shown
light: DIVMTQSPLSLPVTPGEPASISCQASESLVHSNRNTYLHWYLQKPGQSPQLLIYKVSNRFSGVPDRFSGSGSGTDFTLKISRVEAEDVGVYYCSQNTHVPPTFGQGTKVEIERTVAAPSVFIFPPSDEQLKSGTASVVCLLNNFYPREAKVQWKVDNALQSGNSQESVTEQDSKDSTYSLSSTLTLSKADYEKHKVYACEVTHQGLSSPVTKSFNRGEC
notes: as for B1
He/Con_1a: 105 relative, control = 100

B5: GpH7-A5/GpH7-B3 variant S337_20W/GpL16-k0 (antibody, human IgG1, kappa)
heavy 1: not shown
heavy 2: not shown
light: DIVMTQSPLSLPVTPGEPASISCQASESLVHSNRNTYLHWYLQKPGQSPQLLIYKVSNRFSGVPDRFSGSGSGTDFTLKISRVEAEDVGVYYCSQNTHVPPTFGQGTKVEIERTVAAPSVFIFPPSDEQLKSGTASVVCLLNNFYPREAKVQWKVDNALQSGNSQESVTEQDSKDSTYSLSSTLTLSKADYEKHKVYACEVTHQGLSSPVTKSFNRGEC
notes: as for B1
He/Con_1a: 105 relative, control = 100

B6: GpH7-A5/GpH7-B3 variant S337_10E/GpL16-k0 (antibody, human IgG1, kappa)
heavy 1: not shown
heavy 2: not shown
light: DIVMTQSPLSLPVTPGEPASISCQASESLVHSNRNTYLHWYLQKPGQSPQLLIYKVSNRFSGVPDRFSGSGSGTDFTLKISRVEAEDVGVYYCSQNTHVPPTFGQGTKVEIERTVAAPSVFIFPPSDEQLKSGTASVVCLLNNFYPREAKVQWKVDNALQSGNSQESVTEQDSKDSTYSLSSTLTLSKADYEKHKVYACEVTHQGLSSPVTKSFNRGEC
notes: as for B1
He/Con_1a: 106 relative, control = 100

B7: GpH7-A5/GpH7-B3 variant Y296_16H/GpL16-k0 (antibody, human IgG1, kappa)
heavy 1: not shown
heavy 2: not shown
light: DIVMTQSPLSLPVTPGEPASISCQASESLVHSNRNTYLHWYLQKPGQSPQLLIYKVSNRFSGVPDRFSGSGSGTDFTLKISRVEAEDVGVYYCSQNTHVPPTFGQGTKVEIERTVAAPSVFIFPPSDEQLKSGTASVVCLLNNFYPREAKVQWKVDNALQSGNSQESVTEQDSKDSTYSLSSTLTLSKADYEKHKVYACEVTHQGLSSPVTKSFNRGEC
notes: as for B1
He/Con_1a: 106 relative, control = 100

B8: GpH7-A5/GpH7-B3 variant T335_16H/GpL16-k0 (antibody, human IgG1, kappa)
heavy 1: not shown
heavy 2: not shown
light: DIVMTQSPLSLPVTPGEPASISCQASESLVHSNRNTYLHWYLQKPGQSPQLLIYKVSNRFSGVPDRFSGSGSGTDFTLKISRVEAEDVGVYYCSQNTHVPPTFGQGTKVEIERTVAAPSVFIFPPSDEQLKSGTASVVCLLNNFYPREAKVQWKVDNALQSGNSQESVTEQDSKDSTYSLSSTLTLSKADYEKHKVYACEVTHQGLSSPVTKSFNRGEC
notes: as for B1
He/Con_1a: 106 relative, control = 100

B9: GpH7-A5/GpH7-B3 variant T335_11K/GpL16-k0 (antibody, human IgG1, kappa)
heavy 1: not shown
heavy 2: not shown
light: DIVMTQSPLSLPVTPGEPASISCQASESLVHSNRNTYLHWYLQKPGQSPQLLIYKVSNRFSGVPDRFSGSGSGTDFTLKISRVEAEDVGVYYCSQNTHVPPTFGQGTKVEIERTVAAPSVFIFPPSDEQLKSGTASVVCLLNNFYPREAKVQWKVDNALQSGNSQESVTEQDSKDSTYSLSSTLTLSKADYEKHKVYACEVTHQGLSSPVTKSFNRGEC
notes: as for B1
He/Con_1a: 111 relative, control = 100

B10: GpH7-A5/GpH7-B3 variant T335_06M/GpL16-k0 (antibody, human IgG1, kappa)
heavy 1: not shown
heavy 2: not shown
light: DIVMTQSPLSLPVTPGEPASISCQASESLVHSNRNTYLHWYLQKPGQSPQLLIYKVSNRFSGVPDRFSGSGSGTDFTLKISRVEAEDVGVYYCSQNTHVPPTFGQGTKVEIERTVAAPSVFIFPPSDEQLKSGTASVVCLLNNFYPREAKVQWKVDNALQSGNSQESVTEQDSKDSTYSLSSTLTLSKADYEKHKVYACEVTHQGLSSPVTKSFNRGEC
notes: as for B1
He/Con_1a: 107 relative, control = 100

B11: GpH7-A5/GpH7-B3 variant Y296_12R/GpL16-k0 (antibody, human IgG1, kappa)
heavy 1: not shown
heavy 2: not shown
light: DIVMTQSPLSLPVTPGEPASISCQASESLVHSNRNTYLHWYLQKPGQSPQLLIYKVSNRFSGVPDRFSGSGSGTDFTLKISRVEAEDVGVYYCSQNTHVPPTFGQGTKVEIERTVAAPSVFIFPPSDEQLKSGTASVVCLLNNFYPREAKVQWKVDNALQSGNSQESVTEQDSKDSTYSLSSTLTLSKADYEKHKVYACEVTHQGLSSPVTKSFNRGEC
notes: as for B1
He/Con_1a: 106 relative, control = 100
